# According to the supplement of paper PMC12042874:
# ± gives the uncertainty stated by the source.
# Assay: amyloid nucleation score (Sup35N fusion, yeast selection) (log enrichment); library NNK1; higher = more nucleation; inactive = no reads after selection
# Outline: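 In psi-negative yeast, Sup35N fusions carrying peptides of 20 random codons were induced with 100 μM copper sulfate for 24 hours. The cells then grew 7 days at 30°C on medium lacking adenine and uracil, and plasmid inserts from input and output were Illumina-sequenced, excluding sequences with under 100 input reads. Nucleation score is the DiMSum log enrichment of output over input reads, centred on the mode score of non-aggregating sequences.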
row,Substance,amyloid nucleation score
1,FMISRFLAMRILRTAIWRED,0.447 ± 0.78
2,FMMCAYSLVPILLP,0.136 ± 1.1
3,FMNGLGPAVAYIMGYTYVSM,6.369 ± 0.063
4,FNKVYMSSIVASKVVKMRLI,-0.476 ± 0.75
5,FNVAAVVGWMKRLIDRSRNT,1.3 ± 0.88
6,FNVCLSKESVNLGRD,0.486 ± 0.39
7,FNYVICYSLCVVFWARRWCN,1.75 ± 0.14
8,FPCSRIELVVSVCVAWVNSC,1.42 ± 0.28
9,FPDELESWRTSASPRVAPMG,-0.247 ± 1.9
10,FPDGEYPMTYTLWELKYVFV,-0.487 ± 0.65
11,FPDYVDTTFRQIWECLWFFP,inactive
12,FPEFIVFRMRIVYIVSFRTW,1.06 ± 0.47
13,FPLSTQ,2.37 ± 0.43
14,FPRLGCARTFSDHSMLACTI,0.098 ± 0.59
15,FQASSLTGPH,-0.574 ± 0.36
16,FQTFSSICYMISFLIVG,0.928 ± 0.68
17,FRFMVLGLVSLGIGV,-0.59 ± 0.62
18,FRFSHRLFLWPKYFSIFKNS,0.37 ± 0.35
19,FRGSLIFSISVIKVISVLSE,2.11 ± 0.14
20,FRGSRELNMSSQGVGACLIR,-0.399 ± 0.88
21,FRGYSGL,1.46 ± 0.55
22,FRIYLYLTCGLCSIIHYFVP,0.818 ± 0.25

row,Substance,amyloid nucleation score
1,FRLRVSGVSCMR,-0.912 ± 2.4
2,FRLTGTLALKFVVELTVRR,2.79 ± 0.26
3,FRLVYNNFAIT,-1.78 ± 2.4
4,FRNDGYLNSYMSRRVIIPSD,-0.194 ± 0.23
5,FRNIDTLLTVHCVSACR,-2.4 ± 2.7
6,FRNSLSYIVLSCLAMFFNDG,0.967 ± 0.32
7,FRNTERGEFNVVYGSPGFSR,0.751 ± 0.51
8,FRPSRHNAQPMFHSKPSRAF,-0.636 ± 1.1
9,FRRFIFFVGYGHFIFWASWL,-0.156 ± 0.68
10,FRRYLWFRDRPGFCCFRLMQ,-0.46 ± 1.5
11,FRSGFSLKARSVQMCDRF,1.26 ± 0.42
12,FRSSFGMTHYWEWRASSGRN,0.882 ± 0.2
13,FRVGYFAHSCRYVRSGRHMV,0.401 ± 0.26
14,FRVLNCVSYVFFQRHFRRCG,-0.974 ± 0.88
15,FRVLWDYCVSSTVRRVTSLG,inactive
16,FRVSSFWYWYVHLQGYYGTV,1.01 ± 0.8
17,FRYIYMMDMSSYQYVKRGSS,inactive
18,FRYLVKYRVLH,0.14 ± 0.44
19,FRYVDALHDRSSYIQIGKRI,-0.423 ± 1.5
20,FSDQTFSDLGMIEFRGFLWS,0.343 ± 0.39
21,FSDSKLILRRRNPW,-1.56 ± 1.4
22,FSFISKIIESCYGDFLVGDA,-1.21 ± 0.61

row,Substance,amyloid nucleation score
1,FSGHNC,0.299 ± 0.35
2,FSKCSFT,-0.169 ± 0.69
3,FSLDMSTCVLENFVLDTFQH,-2.21 ± 2.7
4,FSLLYV,0.321 ± 0.67
5,FSMGQQMFVLVLSCFLVLWC,0.832 ± 0.65
6,FSMGSVWTEERQLCWVPMVW,1.11 ± 0.94
7,FSMLIDEELDFSAETSLRHG,0.637 ± 0.59
8,FSNARWASRSLKSARMACVA,0.554 ± 0.81
9,FSNDRCGFVAR,0.149 ± 0.26
10,FSNIWMSTMVPSRVRKARCV,0.05 ± 0.75
11,FSNNLHLWAITSVLNIQTSN,6.245 ± 0.053
12,FSPLCKPLNSWYNQVKYRRH,0.131 ± 0.84
13,FSQRMGICYNVREFCNEFRC,1.47 ± 0.14
14,FSRCPHQALSTECFPFFGS,-0.122 ± 1.4
15,FSRSTQVSER,1.38 ± 0.61
16,FSSIVSGTLAI,inactive
17,FSSLMLLTGEYSLSIWCKRS,1 ± 0.8
18,FSSLWDGLLY,1.16 ± 0.69
19,FSVAGSE,inactive
20,FSVRHLSVSVLRMGTHLLDA,-0.746 ± 0.61
21,FTARTGALGEVVWSFSLGLG,0.316 ± 0.45
22,FTGNLSGDCIYYFLCVVLSM,0.47 ± 0.65

row,Substance,amyloid nucleation score
1,FTLGVFSL,0.017 ± 0.22
2,FTLLAFGCNSENGG,-0.462 ± 0.6
3,FTLRSDVAQQVIDDMGAVGS,-1.11 ± 1.5
4,FTLYYFLSC,0.406 ± 0.56
5,FTRKLPSFVLL,0.392 ± 0.61
6,FTRTLMLMIRACCWHRFQLT,0.008 ± 0.91
7,FTSLNVRKLRGACRTTSSHG,-0.077 ± 0.61
8,FTVSRPIMYIVYNCLHSVCV,4.61 ± 0.049
9,FTWMRYQKHEGHFI,-0.447 ± 1.2
10,FVAASNYQAIPYCYRMIYVS,-0.102 ± 0.4
11,FVATNPVL,0.588 ± 0.42
12,FVCRLATNYH,inactive
13,FVECSERRGSKGSLYIDEVS,-0.629 ± 0.73
14,FVEVMLIVNFTGLGVV,0.576 ± 0.16
15,FVGCRHHFGPCTNRCTK,0.087 ± 0.9
16,FVLRRLALQ,-0.992 ± 0.39
17,FVPIDLGNGK,0.564 ± 0.51
18,FVRAIMARVGFTFV,0.569 ± 0.47
19,FVRVANMVAWYNASRRLR,inactive
20,FVTWH,inactive
21,FVYHWRSVKGNLVWRCGSMD,0.95 ± 0.63
